# According to patent US20170306033A1 (Amgen, published 2017):
# T1: human PAC1 receptor (human, UniProt P41586 21-468)
# T1 sequence: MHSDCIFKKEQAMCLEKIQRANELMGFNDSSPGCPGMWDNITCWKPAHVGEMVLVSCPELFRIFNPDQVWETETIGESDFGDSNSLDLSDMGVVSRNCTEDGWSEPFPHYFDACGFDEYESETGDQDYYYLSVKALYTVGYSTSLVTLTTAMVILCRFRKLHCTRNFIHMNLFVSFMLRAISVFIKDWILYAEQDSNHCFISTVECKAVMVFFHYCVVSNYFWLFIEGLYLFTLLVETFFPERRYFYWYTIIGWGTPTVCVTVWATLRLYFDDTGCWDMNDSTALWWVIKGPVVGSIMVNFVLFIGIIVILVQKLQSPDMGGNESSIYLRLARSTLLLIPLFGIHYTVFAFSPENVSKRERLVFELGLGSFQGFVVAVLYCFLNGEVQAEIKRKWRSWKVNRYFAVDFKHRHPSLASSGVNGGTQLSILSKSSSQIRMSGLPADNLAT
# Tests used:
# human CGRP receptor = human CGRP receptor (human, UniProt Q16602 23-461; O60894 27-148); assay: cell-based or functional assay
# human PAC1 receptor = target: T1, human PAC1 receptor; assay: cell-based or functional assay
# human CGRP receptor, sequence (Q16602 23-461 limits assumed, chain 1 of 2): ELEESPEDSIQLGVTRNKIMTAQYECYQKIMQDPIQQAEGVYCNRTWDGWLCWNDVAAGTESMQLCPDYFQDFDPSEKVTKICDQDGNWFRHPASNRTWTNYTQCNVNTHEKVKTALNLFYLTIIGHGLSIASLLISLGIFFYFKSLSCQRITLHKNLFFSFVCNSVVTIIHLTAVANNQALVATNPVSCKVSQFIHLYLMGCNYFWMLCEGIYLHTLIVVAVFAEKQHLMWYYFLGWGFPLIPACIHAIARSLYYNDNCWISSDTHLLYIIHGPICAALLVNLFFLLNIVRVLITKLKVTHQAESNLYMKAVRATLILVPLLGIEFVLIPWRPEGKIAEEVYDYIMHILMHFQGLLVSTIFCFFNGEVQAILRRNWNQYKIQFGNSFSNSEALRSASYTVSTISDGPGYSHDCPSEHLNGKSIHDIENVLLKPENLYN
# human CGRP receptor, sequence (O60894 27-148 limits assumed, chain 2 of 2): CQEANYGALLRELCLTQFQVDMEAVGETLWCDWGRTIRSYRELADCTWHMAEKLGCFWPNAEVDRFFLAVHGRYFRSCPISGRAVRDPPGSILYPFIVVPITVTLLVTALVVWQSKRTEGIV
Binder,Human CGRP Receptor IC50 (human CGRP receptor),Human PAC1 Receptor IC50 (human PAC1 receptor)
"iPS:386736 (bispecific antibody, human IgG1, kappa, N297G) light: DIQLTQSPSFLSASVGDRVTITCRASQSIGRSLHWYQQKPGKAPKLLIKYASQSLSGVPSRFSGSGSGTEFTLTISSLQPEDFATYYCHQSSRLPFTFGPGTKVDIKRTVAAPSVFIFPPSDEQLKSGTASVVCLLNNFYPREAKVQWKVDNALQSGNSQESVTEQDSKDSTYSLSSTLTLSKADYEKHKVYACEVTHQGLSSPVTKSFNRGEC heavy: not shown",0.9 nM,5.43 nM
"iPS:386748 (bispecific antibody, human IgG1, kappa, N297G) light: DIQLTQSPSFLSASVGDRVTITCRASQSIGRSLHWYQQKPGKAPKLLIKYASQSLSGVPSRFSGSGSGTEFTLTISSLQPEDFATYYCHQSSRLPFTFGPGTKVDIKRTVAAPSVFIFPPSDEQLKSGTASVVCLLNNFYPREAKVQWKVDNALQSGNSQESVTEQDSKDSTYSLSSTLTLSKADYEKHKVYACEVTHQGLSSPVTKSFNRGEC heavy: not shown",0.63 nM,2.85 nM
"iPS:386752 (bispecific antibody, human IgG1, kappa, N297G) light: DIQLTQSPSFLSASVGDRVTITCRASQSIGRSLHWYQQKPGKAPKLLIKYASQSLSGVPSRFSGSGSGTEFTLTISSLQPEDFATYYCHQSSRLPFTFGPGTKVDIKRTVAAPSVFIFPPSDEQLKSGTASVVCLLNNFYPREAKVQWKVDNALQSGNSQESVTEQDSKDSTYSLSSTLTLSKADYEKHKVYACEVTHQGLSSPVTKSFNRGEC heavy: not shown",0.62 nM,6.08 nM
"iPS:386740 (bispecific antibody, human IgG1, kappa, N297G) light: DIQLTQSPSFLSASVGDRVTITCRASQSIGRSLHWYQQKPGKAPKLLIKYASQSLSGVPSRFSGSGSGTEFTLTISSLQPEDFATYYCHQSSRLPFTFGPGTKVDIKRTVAAPSVFIFPPSDEQLKSGTASVVCLLNNFYPREAKVQWKVDNALQSGNSQESVTEQDSKDSTYSLSSTLTLSKADYEKHKVYACEVTHQGLSSPVTKSFNRGEC heavy: not shown",0.56 nM,4.4 nM
"iPS:386744 (bispecific antibody, human IgG1, kappa, N297G) light: DIQLTQSPSFLSASVGDRVTITCRASQSIGRSLHWYQQKPGKAPKLLIKYASQSLSGVPSRFSGSGSGTEFTLTISSLQPEDFATYYCHQSSRLPFTFGPGTKVDIKRTVAAPSVFIFPPSDEQLKSGTASVVCLLNNFYPREAKVQWKVDNALQSGNSQESVTEQDSKDSTYSLSSTLTLSKADYEKHKVYACEVTHQGLSSPVTKSFNRGEC heavy: not shown",0.61 nM,3.63 nM
"iPS:386742 (bispecific antibody, human IgG1, kappa, N297G) light: DIQLTQSPSFLSASVGDRVTITCRASQSIGRSLHWYQQKPGKAPKLLIKYASQSLSGVPSRFSGSGSGTEFTLTISSLQPEDFATYYCHQSSRLPFTFGPGTKVDIKRTVAAPSVFIFPPSDEQLKSGTASVVCLLNNFYPREAKVQWKVDNALQSGNSQESVTEQDSKDSTYSLSSTLTLSKADYEKHKVYACEVTHQGLSSPVTKSFNRGEC heavy: not shown",0.61 nM,6.39 nM
"iPS:386746 (bispecific antibody, human IgG1, kappa, N297G) light: DIQLTQSPSFLSASVGDRVTITCRASQSIGRSLHWYQQKPGKAPKLLIKYASQSLSGVPSRFSGSGSGTEFTLTISSLQPEDFATYYCHQSSRLPFTFGPGTKVDIKRTVAAPSVFIFPPSDEQLKSGTASVVCLLNNFYPREAKVQWKVDNALQSGNSQESVTEQDSKDSTYSLSSTLTLSKADYEKHKVYACEVTHQGLSSPVTKSFNRGEC heavy: not shown",0.79 nM,3.28 nM
"iPS:386750 (bispecific antibody, human IgG1, kappa, N297G) light: DIQLTQSPSFLSASVGDRVTITCRASQSIGRSLHWYQQKPGKAPKLLIKYASQSLSGVPSRFSGSGSGTEFTLTISSLQPEDFATYYCHQSSRLPFTFGPGTKVDIKRTVAAPSVFIFPPSDEQLKSGTASVVCLLNNFYPREAKVQWKVDNALQSGNSQESVTEQDSKDSTYSLSSTLTLSKADYEKHKVYACEVTHQGLSSPVTKSFNRGEC heavy: not shown",0.58 nM,4.54 nM
"iPS:386738 (bispecific antibody, human IgG1, kappa, N297G) light: DIQLTQSPSFLSASVGDRVTITCRASQSIGRSLHWYQQKPGKAPKLLIKYASQSLSGVPSRFSGSGSGTEFTLTISSLQPEDFATYYCHQSSRLPFTFGPGTKVDIKRTVAAPSVFIFPPSDEQLKSGTASVVCLLNNFYPREAKVQWKVDNALQSGNSQESVTEQDSKDSTYSLSSTLTLSKADYEKHKVYACEVTHQGLSSPVTKSFNRGEC heavy: not shown",0.74 nM,5.09 nM
"iPS:386705 (bispecific antibody, human IgG1, lambda, N297G) light: QSVLTQPPSVSAAPGQKVTISCSGSSSNIGNNYVSWYQQLPGTAPKLLIYDNNKRPSGIPDRFSGSKSGTSTTLGITGLQTGDEADYYCGTWDSRLSAVVFGGGTKLTVLGQPKANPTVTLFPPSSEELQANKATLVCLISDFYPGAVTVAWKADGSPVKAGVETTKPSKQSNNKYAASSYLSLTPEQWKSHRSYSCQVTHEGSTVEKTVAPTECS heavy: not shown",0.43 nM,605 nM
"iPS:386729 (bispecific antibody, human IgG1, lambda, N297G) light: QSVLTQPPSVSAAPGQKVTISCSGSSSNIGNNYVSWYQQLPGTAPKLLIYDNNKRPSGIPDRFSGSKSGTSATLAITGLQTGDEADYYCGTWDSRLSAVVFGGGTKLTVLGQPKANPTVTLFPPSSEELQANKATLVCLISDFYPGAVTVAWKADGSPVKAGVETTKPSKQSNNKYAASSYLSLTPEQWKSHRSYSCQVTHEGSTVEKTVAPTECS heavy: not shown",0.47 nM,565 nM
"iPS:386727 (bispecific antibody, human IgG1, lambda, N297G) light: QSVLTQPPSVSAAPGQKVTISCSGSSSNIGNNYVSWYQQLPGTAPKLLIYDNNKRPSGIPDRFSGSKSGTSATLGITGLQTGDEADYYCGTWDSRLSAVVFGGGTKLTVLGQPKANPTVTLFPPSSEELQANKATLVCLISDFYPGAVTVAWKADGSPVKAGVETTKPSKQSNNKYAASSYLSLTPEQWKSHRSYSCQVTHEGSTVEKTVAPTECS heavy: not shown",0.72 nM,371 nM
"iPS:386709 (bispecific antibody, human IgG1, lambda, N297G) light: QSVLTQPPSVSAAPGQKVTISCSGSSSNIGNNYVSWYQQLPGTAPKLLIYDNNKRPSGIPDRFSGSKSGTSATLGITGLQTGDEADYYCGTWDSRLSAVVFGGGTKLTVLGQPKANPTVTLFPPSSEELQANKATLVCLISDFYPGAVTVAWKADGSPVKAGVETTKPSKQSNNKYAASSYLSLTPEQWKSHRSYSCQVTHEGSTVEKTVAPTECS heavy: not shown",0.47 nM,432 nM
"iPS:386711 (bispecific antibody, human IgG1, lambda, N297G) light: QSVLTQPPSVSAAPGQKVTISCSGSSSNIGNNYVSWYQQLPGTAPKLLIYDNNKRPSGIPDRFSGSKSGTSATLAITGLQTGDEADYYCGTWDSRLSAVVFGGGTKLTVLGQPKANPTVTLFPPSSEELQANKATLVCLISDFYPGAVTVAWKADGSPVKAGVETTKPSKQSNNKYAASSYLSLTPEQWKSHRSYSCQVTHEGSTVEKTVAPTECS heavy: not shown",0.53 nM,1210 nM
"iPS:386707 (bispecific antibody, human IgG1, lambda, N297G) light: QSVLTQPPSVSAAPGQKVTISCSGSSSNIGNNYVSWYQQLPGTAPKLLIYDNNKRPSGIPDRFSGSKSGTSTTLGITGLQTGDEADYYCGTWDSRLSAVVFGGGTKLTVLGQPKANPTVTLFPPSSEELQANKATLVCLISDFYPGAVTVAWKADGSPVKAGVETTKPSKQSNNKYAASSYLSLTPEQWKSHRSYSCQVTHEGSTVEKTVAPTECS heavy: not shown",0.47 nM,740 nM
"iPS:386725 (bispecific antibody, human IgG1, lambda, N297G) light: QSVLTQPPSVSAAPGQKVTISCSGSSSNIGNNYVSWYQQLPGTAPKLLIYDNNKRPSGIPDRFSGSKSGTSTTLGITGLQTGDEADYYCGTWDSRLSAVVFGGGTKLTVLGQPKANPTVTLFPPSSEELQANKATLVCLISDFYPGAVTVAWKADGSPVKAGVETTKPSKQSNNKYAASSYLSLTPEQWKSHRSYSCQVTHEGSTVEKTVAPTECS heavy: not shown",0.42 nM,549 nM
"iPS:386731 (bispecific antibody, human IgG1, lambda, N297G) light: QSVLTQPPSVSAAPGQKVTISCSGSSSNIGNNYVSWYQQLPGTAPKLLIYDNNKRPSGIPDRFSGSKSGTSTTLGITGLQTGDEADYYCGTWDSRLSAVVFGGGTKLTVLGQPKANPTVTLFPPSSEELQANKATLVCLISDFYPGAVTVAWKADGSPVKAGVETTKPSKQSNNKYAASSYLSLTPEQWKSHRSYSCQVTHEGSTVEKTVAPTECS heavy: not shown",0.4 nM,347 nM
"iPS:386713 (bispecific antibody, human IgG1, lambda, N297G) light: QSVLTQPPSVSAAPGQKVTISCSGSSSNIGNNYVSWYQQLPGTAPKLLIYDNNKRPSGIPDRFSGSKSGTSATLGITGLQTGDEADYYCGTWDSRLSAVVFGGGTKLTVLGQPKANPTVTLFPPSSEELQANKATLVCLISDFYPGAVTVAWKADGSPVKAGVETTKPSKQSNNKYAASSYLSLTPEQWKSHRSYSCQVTHEGSTVEKTVAPTECS heavy: not shown",0.37 nM,603 nM
"iPS:386733 (bispecific antibody, human IgG1, lambda, N297G) light: QSVLTQPPSVSAAPGQKVTISCSGSSSNIGNNYVSWYQQLPGTAPKLLIYDNNKRPSGIPDRFSGSKSGTSATLAITGLQTGDEADYYCGTWDSRLSAVVFGGGTKLTVLGQPKANPTVTLFPPSSEELQANKATLVCLISDFYPGAVTVAWKADGSPVKAGVETTKPSKQSNNKYAASSYLSLTPEQWKSHRSYSCQVTHEGSTVEKTVAPTECS heavy: not shown",0.34 nM,74.3 nM
